Data reported in article PMC10962793, “Structural and functional characterization of sulfurtransferase from Frondihabitans sp. PAMC28461” (PLOS ONE, 2024).

Experiments:
FrST = molecular target: T1, FrST (Frondihabitans sp., UniProt Z9JZO3RSK1); assay: colorimetric ferric thiocyanate assay at […] nm, Michaelis-Menten fit; assay type: biochemical; conditions: read-out: Kinetic parameters^* / Km
T1 construct: synthetic gene in pET28a, E. coli BL21(DE3); His-tag cleaved with thrombin; model 302 residues; catalytic Cys247

CC(CS)C(=O)O = assay: purified protein; assay type: biochemical, Frondihabitans sp.; conditions: pH 8.0; 25.0 °C
CS(=O)(=O)S = assay: purified protein; assay type: biochemical, Frondihabitans sp.; conditions: pH 8.0; 25.0 °C
O=C(O)C(=O)CS = assay: purified protein; assay type: biochemical, Frondihabitans sp.; conditions: pH 8.0; 25.0 °C
O=C(O)CCS = assay: purified protein; assay type: biochemical, Frondihabitans sp.; conditions: pH 8.0; 25.0 °C
O=S(=O)(S)c1ccccc1 = assay: purified protein; assay type: biochemical, Frondihabitans sp.; conditions: pH 8.0; 25.0 °C
[1] = molecular target: sulfurtransferase FrST from Frondihabitans sp. PAMC28461 (Frondihabitans sp. PAMC28461); assay: AUC; sedimentation velocity, 20 mM Tris-HCl pH 8.0, 200 mM NaCl, 20°C, 42,000 RPM, 280 nm, SEDFIT

`O=S(O)(O)=S` [Sodium thiosulfate] gave a Km (FrST) of 6.3 ± 0.2 mM.

Compound FrST (Frondihabitans sp.) has a Km (CC(CS)C(=O)O) of 4.1 ± 0.4 mM, a Vmax (CC(CS)C(=O)O) of 17.8 µmol/min/mg and a kcat/Km (CC(CS)C(=O)O) of 240 M⁻¹ s⁻¹. The Km (CS(=O)(=O)S) was 6.0 ± 0.3 mM, the Vmax (CS(=O)(=O)S) was 1490 µmol/min/mg and the kcat/Km (CS(=O)(=O)S) was 14200 M⁻¹ s⁻¹. For the same compound, the Km (O=C(O)C(=O)CS) was 13.9 ± 2.6 mM, the Vmax (O=C(O)C(=O)CS) was 150 µmol/min/mg and the kcat/Km (O=C(O)C(=O)CS) was 610 M⁻¹ s⁻¹. The Km (O=C(O)CCS) was 10.7 ± 1.3 mM, the Vmax (O=C(O)CCS) was 43.7 µmol/min/mg and the kcat/Km (O=C(O)CCS) was 250 M⁻¹ s⁻¹. For the same compound, the Km (O=S(=O)(S)c1ccccc1) was 6.1 ± 0.9 mM, the Vmax (O=S(=O)(S)c1ccccc1) was 7810 µmol/min/mg and the kcat/Km (O=S(=O)(S)c1ccccc1) was 73000 M⁻¹ s⁻¹.

Work on “sulfurtransferase FrST from Frondihabitans sp. PAMC28461 (enzyme)” yielded a stoichiometry N [1] of 2.
